Data from article PMC5655238.

Biological target: Bcl-2 (UniProt P10415)
Assay: anti-HA IP, Bcl-2 blot
Settings: reference: HA-Beclin-1 wild type; sites T119

binding against the reference: stronger
Substance: Beclin-1 (from UniProt Q14457) HA-Beclin-1 T119A
